Among the data in doi:10.1101/2023.08.11.549911 are Kd and stoichiometry N values, retold here.

The target in test [1] is Leucine-rich repeat kinase 2 (LRRK2), full-length wild type, N-terminal Strep-FLAG (SF) tagged (human) (UniProt Q5S007). The experiment in a line: mass photometry. Conditions: remark: other sources report otherwise.
Test [2] deals with LRRK2 G2019S, full-length, N-terminal Strep-FLAG (SF) tagged (human) (UniProt Q5S007). As to the kind of experiment: native gel or EMSA. Conditions: remark: other sources report otherwise. For orientation: In EMSA bound probe runs differently from free probe, usually more slowly.
For test [3], the target named is LRRK2 R1441G, full-length, N-terminal Strep-FLAG (SF) tagged (human) (UniProt Q5S007). The experiment in a line: native gel or EMSA.

For the substance “Leucine-rich repeat kinase 2 (LRRK2), full-length wild type, N-terminal Strep-FLAG (SF) tagged, Q5S007 1-2527”, the equilibrium dissociation constant (Kd) in test [1] worked out at 200 nM.

Consider “LRRK2 G2019S, full-length, N-terminal Strep-FLAG (SF) tagged, Q5S007 1-2527”, for which, in test [2], the stoichiometry N worked out at 2.

In the case of “LRRK2 R1441G, full-length, N-terminal Strep-FLAG (SF) tagged, Q5S007 1-2527”, the stoichiometry N in test [3] is 2.

A word on the Kd: it is the concentration at which binding is half-saturated. What is called stoichiometry N is the number of molecules, sites or subunits per partner or assembly.
